# Reference: patent US20200330588A1 (ICAHN SCHOOL OF MEDICINE AT MOUNT SINAI, published 2020)
# Columns and labels:
# [1] = biological target: T1, HCMV glycoprotein gH, strain TB40/E (U373^gH cells, TB40/E-infected cells, virions) (Human cytomegalovirus strain TB40/E); assay: cell-based or functional assay
# [2] = biological target: T2, gH mutant 485-492 (consecutive alanine substitutions) transfected into HEK293 cells with gL (Human cytomegalovirus (consensus …)); assay: flow cytometry, HEK293 cells transfected with gH alanine mutant and gL; % of gH-positive cells compared to WT
# T2 construct: whole, on cells; also called 485-492 mutant; gH mutant 485-92
# [3] = biological target: T3, gH alanine mutant 488-489 transfected into HEK293 cells with gL (Human cytomegalovirus (consensus …)); assay: as above
# T3 construct: whole, on cells
# [4] = biological target: T4, gH alanine mutant 490-491 transfected into HEK293 cells with gL (Human cytomegalovirus (consensus …)); assay: as above
# T4 construct: whole, on cells
# [5] = biological target: T5, gH alanine mutant 486-487 transfected into HEK293 cells with gL (Human cytomegalovirus (consensus …)); assay: as above
# T5 construct: whole, on cells
# [6] = biological target: gH alanine mutant 478-488 (label as in Table 6); assay: as above
# [7] = biological target: T6, gH mutant 480-486 (consecutive alanine substitutions) transfected into HEK293 cells with gL (Human cytomegalovirus (consensus …)); assay: as above
# T6 construct: whole, on cells; also called 480-486 mutant; gH mutant 480-86
# [8] = biological target: T7, gH alanine mutant 482-483 transfected into HEK293 cells with gL (Human cytomegalovirus (consensus …)); assay: as above
# T7 construct: whole, on cells
# [9] = biological target: T8, gH alanine mutant 484-485 transfected into HEK293 cells with gL (Human cytomegalovirus (consensus …)); assay: as above
# T8 construct: whole, on cells
# [10] = biological target: T9, gH alanine mutant 480-481 transfected into HEK293 cells with gL (Human cytomegalovirus (consensus …)); assay: as above
# T9 construct: whole, on cells
# [11] = biological target: HCMV glycoprotein gH, strain DAVIS (virions) (Human cytomegalovirus strain DAVIS); assay: cell-based or functional assay
# [12] = biological target: HCMV glycoprotein gH, strain AD169 (AD169IE2-YFP-infected MRC5 cells and virions) (Human cytomegalovirus strain AD169, UniProt P12824 24-743); assay: cell-based or functional assay
# [13] = biological target: HCMV glycoprotein gH, strain VHL/E (virions) (Human cytomegalovirus strain VHL/E); assay: cell-based or functional assay
# [14] = biological target: T1, HCMV glycoprotein gH, strain TB40/E …; assay: cell-based or functional assay; remark: listed apart in the source
# [15] = biological target: HCMV glycoprotein gH, strain TR (virions) (Human cytomegalovirus strain TR); assay: cell-based or functional assay
# [16] = biological target: T10, cyclic gH peptides (7, 10 and 13 aa libraries) spanning gH residues 485-493 (Human cytomegalovirus, cyclized with a thioether linkage between the N' and C' termini); assay: cyclic peptide microarray (PEPperCHIP), anti-mouse DyLight680 detection
# T10 construct: also called region spanning residues 485-493
Binder,"IC50, neutralization of TB40/E FLAG-YFP infection of ARPE-19 epithelial cells (YFP read-out) [1] [mg/L]",Avg. binding (% of mass) [2] [%],Avg. binding (% of mass) [3] [%],Avg. binding (% of mass) [4] [%],Avg. binding (% of mass) [5] [%],Avg. binding (% of mass) [6] [%],Avg. binding (% of mass) [7] [%],Avg. binding (% of mass) [8] [%],Avg. binding (% of mass) [9] [%],Avg. binding (% of mass) [10] [%],"IC50, strain Davis, fibroblasts, plaque assay [11] [mg/L]","IC50, neutralization of AD169IE2-YFP infection of fibroblasts (IE2-YFP read-out) [12] [mg/L]","IC50, strain VHL/E, epithelial cells, α-IE staining [13] [mg/L]","IC50, strain VHL/E, fibroblasts, plaque assay [13] [mg/L]","IC50, strain VHL/E, fibroblasts, α-IE staining [13] [mg/L]","IC50, neutralization of TB40/E FLAG-YFP infection of fibroblasts (FLAG-YFP read-out) [14] [mg/L]","IC50, strain TB40/E, epithelial cells, α-IE staining [14] [mg/L]","IC50, strain TB40/E, fibroblasts, plaque assay [14] [mg/L]","IC50, strain TB40/E, fibroblasts, α-IE staining [14] [mg/L]","IC50, strain TR, epithelial cells, α-IE staining [15] [mg/L]",other results
"monoclonal antibody 10C10 (antibody, V domains shown, also called mAb 10C10; 10C10^647 (Alexa Fluor 647 conjugate)) VH: EVQLQQSGPELVKPGVSMRISCKASGFSFTDYTMNWVKQSHRKNLEWIGLVNPYNGGTSHNPNFKGKATLTVDKSSSTAYMELLSLTSEDSAVYYCARRGRRDYALDYWGQGTSVTVSS VL: DIVLTQSPVTLSVTPGDSVSLSCRASQSVSNNLHWYQQKSHESPRLLIKYASQSISGIPSRFRGSGSGTDFTLSIISVETEDFGMYFCQQSNIWPHTFGAGTKLELKR",0.13,2,98,72,2,100,3,91,3,70,0.37,0.5,0.11,0.24,0.24,0.38,1.35,1.28,4.18,0.44,"IC50, strain TR, fibroblasts, plaque assay [15]: 2.43 mg/L; IC50, strain TR, fibroblasts, α-IE staining [15]: 2.34 mg/L"
"monoclonal antibody 5C3 (antibody, V domains shown, also called mAb 5C3; 5C3^647 (Alexa Fluor 647 conjugate)) VH: QVQLQQPGAELVRPGASVKLSCKASGYTFTTYWMNWVKQRPGQGLEWIGMIDPSDSETHYNQMFKDKATLTVDTSSSTAYMQLSSLTSEDSAVYYCARGRSWFVYWGQGTLVTVSS VL: DIVLTQSPASLAVSLGQRATISCRASKSVSSSGYSYVHWYQQKPGQPPKLLIYLASNLESGVPARFSGSGSGTDFTLNIHSVEEEDAATYYCQHNRELPYTFGGGTKLEIKR",0.04,49,113,92,56,100,14,85,76,72,0.22,0.24,0.11,0.02,0.02,0.07,0.96,0.45,0.88,0.16,"IC50, strain TR, fibroblasts, plaque assay [15]: 2.13 mg/L; IC50, strain TR, fibroblasts, α-IE staining [15]: 0.63 mg/L; fold over background [16]: ~3 fold"
